Reference: paper PMC12548662

Target: Recombinant human α-centractin with an N-terminal His6 tag (human) (UniProt P61163)
UniProt P61163, sequence (P61163 whole entry): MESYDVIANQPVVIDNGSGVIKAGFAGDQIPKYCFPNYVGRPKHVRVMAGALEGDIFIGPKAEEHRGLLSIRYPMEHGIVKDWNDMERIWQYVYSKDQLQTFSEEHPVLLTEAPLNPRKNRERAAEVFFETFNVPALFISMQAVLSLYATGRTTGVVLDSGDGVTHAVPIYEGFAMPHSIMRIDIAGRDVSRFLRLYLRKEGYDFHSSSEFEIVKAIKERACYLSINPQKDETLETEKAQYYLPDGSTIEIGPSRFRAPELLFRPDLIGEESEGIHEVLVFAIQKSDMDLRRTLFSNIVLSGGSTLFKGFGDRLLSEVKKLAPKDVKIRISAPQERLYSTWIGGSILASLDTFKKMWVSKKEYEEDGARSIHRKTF

- KM of SETD3 for α-centractin (0.2–5 µM), radiochemical methyltransferase assay, 5 min at 37 °C with 1 µM [1H+3H]SAM: 3.83 µM
B1: Recombinant His6-tagged human SETD3 (wild-type) (enzyme)
chain: MGKKSRVKTQKSGTGATATVSPKEILNLTSELLQKCSSPAPGPGKEWEEYVQIRTLVEKIRKKQKGLSVTFDGKREDYFPDLMKWASENGASVEGFEMVNFKEEGFGLRATRDIKAEELFLWVPRKLLMTVESAKNSVLGPLYSQDRILQAMGNIALAFHLLCERASPNSFWQPYIQTLPSEYDTPLYFEEDEVRYLQSTQAIHDVFSQYKNTARQYAYFYKVIQTHPHANKLPLKDSFTYEDYRWAVSSVMTRQNQIPTEDGSRVTLALIPLWDMCNHTNGLITTGYNLEDDRCECVALQDFRAGEQIYIFYGTRSNAEFVIHSGFFFDNNSHDRVKIKLGVSKSDRLYAMKAEVLARAGIPTSSVFALHFTEPPISAQLLAFLRVFCMTEEELKEHLLGDSAIDRIFTLGNSEFPVSWDNEVKLWTFLEDRASLLLKTYKTTIEEDKSVLKNHDLSVRAKMAIKLRLGEKEILEKAVKSAAVNREYYRQQMEEKAPLPKYEESNLGLLESSVGDSRLPLVLRNLEEEAGVQDALNIREAISKAKATENGLVNGENSIPNGTRSENESLNQESKRAVEDAKGSSSDSTAGVKE
